Measurements taken from the supplement of paper PMC11246515.
± gives the standard deviation of the averaged measurements.

Assay: total protein half-life in vivo (active degradation + dilution); higher = more stable protein
[1] = E. coli NCM3722 delta-clpP delta-lon delta-hslV, growth: N-lim chemostat, doubling time 6 h
[2] = E. coli NCM3722 delta-clpP, growth: N-lim chemostat, doubling time 6 h
[3] = E. coli NCM3722 delta-hslV, growth: N-lim chemostat, doubling time 6 h
[4] = E. coli NCM3722 delta-lon, growth: N-lim chemostat, doubling time 6 h
[5] = E. coli NCM3722 delta-smpB, growth: N-lim chemostat, doubling time 6 h
[6] = wild type E. coli NCM3722, growth: C-lim chemostat, doubling time 3 h
[7] = wild type E. coli NCM3722, growth: C-lim chemostat, doubling time 6 h
[8] = wild type E. coli NCM3722, growth: C-lim chemostat, doubling time 12 h
[9] = wild type E. coli NCM3722, growth: N-lim chemostat, doubling time 6 h
[10] = wild type E. coli NCM3722, growth: N-lim chemostat, doubling time 12 h
[11] = wild type E. coli NCM3722, growth: P-lim chemostat, doubling time 6 h
[12] = wild type E. coli NCM3722, growth: P-lim chemostat, doubling time 12 h

Sequence | total protein half-life in vivo [1] | total protein half-life in vivo [2] | total protein half-life in vivo [3] | total protein half-life in vivo [4] | total protein half-life in vivo [5] | total protein half-life in vivo [6] | total protein half-life in vivo [7] | total protein half-life in vivo [8] | total protein half-life in vivo [9] | total protein half-life in vivo [10] | total protein half-life in vivo [11] | total protein half-life in vivo [12]
MKPTTISLLQKYKQEKKRFATITAYDYSFAKLFADEGLNVMLVGDSLGMTVQGHDSTLPVTVADIAYHTAAVRRGAPNCLLLADLPFMAYATPEQAFENAATVMRAGANMVKIEGGEWLVETVQMLTERAVPVCGHLGLTPQSVNIFGGYKVQGRGDEAGDQLLSDALALEAAGAQLLVLECVPVELAKRITEALAIPVIGIGAGNVTDGQILVMHDAFGITGGHIPKFAKNFLAETGDIRAAVRQYMAEVESGVYPGEEHSFH | 6.05 ± 0.05 h | 5.86 ± 0.2 h | 6.34 ± 0.95 h | 6.74 ± 0.46 h | 6.04 ± 0.64 h | 2.96 ± 0.031 h | 6.93 ± 0.31 h | 12.5 ± 2.7 h | 5.51 ± 0.51 h | 12.3 ± 2.8 h | 6.42 ± 1.1 h | 
MKQGLQLRLSQQLAMTPQLQQAIRLLQLSTLELQQELQQALESNPLLEQIDTHEEIDTRETQDSETLDTADALEQKEMPEELPLDASWDTIYTAGTPSGTSGDYIDDELPVYQGETTQTLQDYLMWQVELTPFSDTDRAIATSIVDAVDETGYLTVPLEDILESIGDEEIDIDEVEAVLKRIQRFDPVGVAAKDLRDCLLIQLSQFDKTTPWLEEARLIISDHLDLLANHDFRTLMRVTRLKEDVLKEAVNLIQSLDPRPGQSIQTGEPEYVIPDVLVRKHNGHWTVELNSDSIPRLQINQHYASMCNNARNDGDSQFIRSNLQDAKWLIKSLESRNDTLLRVSRCIVEQQQAFFEQGEEYMKPMVLADIAQAVEMHESTISRVTTQKYLHSPRGIFELKYFFSSHVNTEGGGEASSTAIRALVKKLIAAENPAKPLSDSKLTSLLSEQGIMVARRTVAKYRESLSIPPSNQRKQLV | 5.34 ± 0.089 h | 4.45 ± 0.42 h | 3.48 ± 0.12 h | 4.78 ± 0.64 h | 3.657 ± 0.022 h | 2.57 ± 0.1 h | 4.75 ± 0.098 h | 7.27 ± 1.6 h | 3.94 ± 0.43 h | 5.68 ± 0.088 h | 3.61 ± 0.56 h | 6.22 ± 0.58 h
MKQHQSADNSQGQLYIVPTPIGNLADITQRALEVLQAVDLIAAEDTRHTGLLLQHFGINARLFALHDHNEQQKAETLLAKLQEGQNIALVSDAGTPLINDPGYHLVRTCREAGIRVVPLPGPCAAITALSAAGLPSDRFCYEGFLPAKSKGRRDALKAIEAEPRTLIFYESTHRLLDSLEDIVAVLGESRYVVLARELTKTWETIHGAPVGELLAWVKEDENRRKGEMVLIVEGHKAQEEDLPADALRTLALLQAELPLKKAAALAAEIHGVKKNALYKYALEQQG | 6.24 ± 1.1 h | 5.77 ± 0.73 h | 5.85 ± 0.46 h | 5.1 ± 0.5 h | 5.25 ± 0.13 h | 3.41 ± 0.11 h |  | 11.8 ± 2.3 h | 5.57 ± 0.17 h | 10.5 ± 0.56 h | 5.46 ± 0.11 h | 12.4 ± 0.41 h
MKQQIQLRRREVDETADLPAELPPLLRRLYASRGVRSAQELERSVKGMLPWQQLSGVEKAVEILYNAFREGTRIIVVGDFDADGATSTALSVLAMRSLGCSNIDYLVPNRFEDGYGLSPEVVDQAHARGAQLIVTVDNGISSHAGVEHARSLGIPVIVTDHHLPGDTLPAAEAIINPNLRDCNFPSKSLAGVGVAFYLMLALRTFLRDQGWFDERNIAIPNLAELLDLVALGTVADVVPLDANNRILTWQGMSRIRAGKCRPGIKALLEVANRDAQKLAASDLGFALGPRLNAAGRLDDMSVGVALLLCDNIGEARVLANELDALNQTRKEIEQGMQIEALTLCEKLERSRDTLPGGLAMYHPEWHQGVVGILASRIKERFHRPVIAFAPAGDGTLKGSGRSIQGLHMRDALERLDTLYPGMMLKFGGHAMAAGLSLEEDKFKLFQQRFGELVTEWLDPSLLQGEVVSDGPLSPAEMTMEVAQLLRDAGPWGQMFPEPLFDGHFRLLQQRLVGERHLKVMVEPVGGGPLLDGIAFNVDTALWPDNGVREVQLAYKLDINEFRGNRSLQIIIDNIWPI | 4.22 ± 0.25 h | 3.87 ± 1.1 h | 2.23 ± 0.075 h | 2.74 ± 0.093 h | 2.07 ± 0.028 h | 2.11 ± 0.042 h | 3.66 ± 0.65 h | 4.42 ± 0.24 h | 2.25 ± 0.044 h | 3.5 ± 0.59 h | 2.33 ± 0.37 h | 3.89 ± 0.38 h
MKQYLIAPSILSADFARLGEDTAKALAAGADVVHFDVMDNHYVPNLTIGPMVLKSLRNYGITAPIDVHLMVKPVDRIVPDFAAAGASIITFHPEASEHVDRTLQLIKENGCKAGLVFNPATPLSYLDYVMDKLDVILLMSVNPGFGGQSFIPQTLDKLREVRRRIDESGFDIRLEVDGGVKVNNIGEIAAAGADMFVAGSAIFDQPDYKKVIDEMRSELAKVSHE [P0AG07] | 5.23 ± 0.28 h | 4.58 ± 0.58 h | 5.6 ± 1.7 h | 4.69 ± 0.12 h | 4.27 ± 0.7 h | 3.2 ± 0.21 h | 5.43 ± 0.99 h | 11.4 ± 0.82 h | 4.84 ± 0.16 h | 7.52 ± 0.15 h | 5.72 ± 0.56 h | 12 ± 0.16 h
MKRAFIMVLDSFGIGATEDAERFGDVGADTLGHIAEACAKGEADNGRKGPLNLPNLTRLGLAKAHEGSTGFIPAGMDGNAEVIGAYAWAHEMSSGKDTPSGHWEIAGVPVLFEWGYFSDHENSFPQELLDKLVERANLPGYLGNCHSSGTVILDQLGEEHMKTGKPIFYTSADSVFQIACHEETFGLDKLYELCEIAREELTNGGYNIGRVIARPFIGDKAGNFQRTGNRHDLAVEPPAPTVLQKLVDEKHGQVVSVGKIADIYANCGITKKVKATGLDALFDATIKEMKEAGDNTIVFTNFVDFDSSWGHRRDVAGYAAGLELFDRRLPELMSLLRDDDILILTADHGCDPTWTGTDHTREHIPVLVYGPKVKPGSLGHRETFADIGQTLAKYFGTSDMEYGKAMF [P0A6K6] | 4.63 ± 0.33 h | 4.5 ± 0.27 h | 4.39 ± 0.2 h | 4.1 ± 0.049 h | 3.41 ± 0.21 h | 2.41 ± 0.5 h | 4.68 ± 0.54 h | 9 ± 0.31 h | 4 ± 0.39 h | 6.61 ± 0.31 h | 3.91 ± 0.25 h | 7.26 ± 0.64 h
MKRAPLITGLLLISTSCAYASSGGCGADSTSGATNYSSVVDDVTVNQTDNVTGREFTSATLSSTNWQYACSCSAGKAVKLVYMVSPVLTTTGHQTGYYKLNDSLDIKTTLQANDIPGLTTDQVVSVNTRFTQIKNNTVYSAATQTGVCQGDTSRYGPVNIGANTTFTLYVTKPFLGSMTIPKTDIAVIKGAWVDGMGSPSTGDFHDLVKLSIQGNLTAPQSCKINQGDVIKVNFGFINGQKFTTRNAMPDGFTPVDFDITYDCGDTSKIKNSLQMRIDGTTGVVDQYNLVARRRSSDNVPDVGIRIENLGGGVANIPFQNGILPVDPSGHGTVNMRAWPVNLVGGELETGKFQGTATITVIVR |  | 5.21 h | 6.04 ± 0.24 h |  |  | 3.66 h | 6.25 ± 0.34 h | 11.5 h | 5.8 h | 14 h | 5.42 h | 13.3 h
MKRFSLAILALVVATGAQAASEKVEMNLVTSQGVGQSIGSVTITETDKGLEFSPDLKALPPGEHGFHIHAKGSCQPATKDGKASAAESAGGHLDPQNTGKHEGPEGAGHLGDLPALVVNNDGKATDAVIAPRLKSLDEIKDKALMVHVGGDNMSDQPKPLGGGGERYACGVIK [P0AGD1] | 5.72 ± 1.6 h | 6.84 ± 0.29 h | 6.36 ± 0.53 h | 6.86 ± 0.16 h | 5.11 ± 0.17 h | 2.81 ± 0.45 h | 6.27 ± 0.81 h | 10 ± 1.8 h | 6.57 ± 0.63 h | 11.8 ± 1.3 h | 5.69 ± 0.66 h | 11 ± 0.99 h
